This test concerns the target CBP KIX domain (residues 586–672) (mouse, UniProt P45481 586-672). Kind of test: NMR.

Sequence of CBP KIX domain (residues 586–672) (P45481 586-672): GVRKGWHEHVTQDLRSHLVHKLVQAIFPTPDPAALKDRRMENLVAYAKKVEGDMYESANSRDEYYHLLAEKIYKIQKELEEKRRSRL

On to FSDLPWPL [BMAL1 TAD switch peptide (residues 619–626, FSDLPWPL)], for which the equilibrium dissociation constant (Kd) (usually the free concentration of one partner at which half of the binding sites on the other are occupied at equilibrium, for simple one-to-one binding) was over 500 µM.

For the origin of these results see doi:10.1101/2025.09.04.674342 (2025).
